Source: article PMC8754640 (Nucleic Acids Research, 2021)

B1: GST-RRM2-3 (residues 97–299) (domain or fragment, UniProt P11940 97-299, looked up)
chain: GVGNIFIKNLDKSIDNKALYDTFSAFGNILSCKVVCDENGSKGYGFVHFETQEAAERAIEKMNGMLLNDRKVFVGRFKSRKEREAELGARAKEFTNVYIKNFGEDMDDERLKDLFGKFGPALSVKVMTDESGKSKGFGFVSFERHEDAQKAVDEMNGKELNGKQIYVGRAQKKVERQTELKRKFEQMKQDRITRYQGVNLYVK
B2: Flag-2–3 (97–299) (domain or fragment, UniProt P11940 97-299, looked up)
chain: GVGNIFIKNLDKSIDNKALYDTFSAFGNILSCKVVCDENGSKGYGFVHFETQEAAERAIEKMNGMLLNDRKVFVGRFKSRKEREAELGARAKEFTNVYIKNFGEDMDDERLKDLFGKFGPALSVKVMTDESGKSKGFGFVSFERHEDAQKAVDEMNGKELNGKQIYVGRAQKKVERQTELKRKFEQMKQDRITRYQGVNLYVK
B5: GST-CTD (residues 372–636) (domain or fragment, UniProt P11940 372-636, looked up)
chain: EERQAHLTNQYMQRMASVRAVPNPVINPYQPAPPSGYFMAAIPQTQNRAAYYPPSQIAQLRPSPRWTAQGARPHPFQNMPGAIRPAAPRPPFSTMRPASSQVPRVMSTQRVANTSTQTMGPRPAAAAAAATPAVRTVPQYKYAAGVRNPQQHLNAQPQVTMQQPAVHVQGQEPLTASMLASAPPQEQKQMLGERLFPLIQAMHPTLAGKITGMLLEIDNSELLHMLESPESLRSKVDEAVAVLQAHQAKEAAQKAVNSATGVPTV
B6: Flag-C (372–636) (domain or fragment, UniProt P11940 372-636, looked up)
chain: EERQAHLTNQYMQRMASVRAVPNPVINPYQPAPPSGYFMAAIPQTQNRAAYYPPSQIAQLRPSPRWTAQGARPHPFQNMPGAIRPAAPRPPFSTMRPASSQVPRVMSTQRVANTSTQTMGPRPAAAAAAATPAVRTVPQYKYAAGVRNPQQHLNAQPQVTMQQPAVHVQGQEPLTASMLASAPPQEQKQMLGERLFPLIQAMHPTLAGKITGMLLEIDNSELLHMLESPESLRSKVDEAVAVLQAHQAKEAAQKAVNSATGVPTV
B9: Flag-1–2–3–4 (2–371) (domain or fragment, UniProt P11940 2-371, looked up)
chain: NPSAPSYPMASLYVGDLHPDVTEAMLYEKFSPAGPILSIRVCRDMITRRSLGYAYVNFQQPADAERALDTMNFDVIKGKPVRIMWSQRDPSLRKSGVGNIFIKNLDKSIDNKALYDTFSAFGNILSCKVVCDENGSKGYGFVHFETQEAAERAIEKMNGMLLNDRKVFVGRFKSRKEREAELGARAKEFTNVYIKNFGEDMDDERLKDLFGKFGPALSVKVMTDESGKSKGFGFVSFERHEDAQKAVDEMNGKELNGKQIYVGRAQKKVERQTELKRKFEQMKQDRITRYQGVNLYVKNLDDGIDDERLRKEFSPFGTITSAKVMMEGGRSKGFGFVCFSSPEEATKAVTEMNGRIVATKPLYVALAQRK

Key:
Flag-2–3 (97–299) = biological target: B2; assay: co-IP
Flag-1–2–3–4 (2–371) = biological target: B9; assay: co-IP
GST-PABP WT = GST-PABP WT (UniProt P11940 1-636); assay: co-IP
[1] = biological target: B1; assay: pull-down
SEC = biological target: the molecule itself; assay: SEC
[2] = biological target: B5; assay: co-IP
Flag-C (372–636) = biological target: B6; assay: co-IP
His-PABP WT-Flag = His-PABP WT-Flag (UniProt P11940 2-636); assay: co-IP
[3] = biological target: B1; assay: co-IP

B1: binds (Flag-2–3 (97–299)); binds (Flag-1–2–3–4 (2–371)).

B2: binds (GST-PABP WT); binds [1].

B3: His-PABP 4EA mutant-Flag (natural protein, UniProt P11940 2-636, looked up)
chain: NPSAPSYPMASLYVGDLHPDVTEAMLYEKFSPAGPILSIRVCRDMITRRSLGYAYVNFQQPADAERALDTMNFDVIKGKPVRIMWSQRDPSLRKSGVGNIFIKNLDKSIDNKALYDTFSAFGNILSCKVVCDENGSKGYGFVHFETQEAAERAIEKMNGMLLNDRKVFVGRFKSRKARAAALGARAKAFTNVYIKNFGEDMDDERLKDLFGKFGPALSVKVMTDESGKSKGFGFVSFERHEDAQKAVDEMNGKELNGKQIYVGRAQKKVERQTELKRKFEQMKQDRITRYQGVNLYVKNLDDGIDDERLRKEFSPFGTITSAKVMMEGGRSKGFGFVCFSSPEEATKAVTEMNGRIVATKPLYVALAQRKEERQAHLTNQYMQRMASVRAVPNPVINPYQPAPPSGYFMAAIPQTQNRAAYYPPSQIAQLRPSPRWTAQGARPHPFQNMPGAIRPAAPRPPFSTMRPASSQVPRVMSTQRVANTSTQTMGPRPAAAAAAATPAVRTVPQYKYAAGVRNPQQHLNAQPQVTMQQPAVHVQGQEPLTASMLASAPPQEQKQMLGERLFPLIQAMHPTLAGKITGMLLEIDNSELLHMLESPESLRSKVDEAVAVLQAHQAKEAAQKAVNSATGVPTV
In the case of B3, the “stoichiometry N” value (SEC) is reported as 2.

B4: Flag-Linker (372–543) (domain or fragment, UniProt P11940 372-543, looked up)
chain: EERQAHLTNQYMQRMASVRAVPNPVINPYQPAPPSGYFMAAIPQTQNRAAYYPPSQIAQLRPSPRWTAQGARPHPFQNMPGAIRPAAPRPPFSTMRPASSQVPRVMSTQRVANTSTQTMGPRPAAAAAAATPAVRTVPQYKYAAGVRNPQQHLNAQPQVTMQQPAVHVQGQE
B4: binds [2].

B5: binds (Flag-C (372–636)); binds (His-PABP WT-Flag).

B6: binds (GST-PABP WT).

B7: Flag-linker2-RRM3 (176–299) (domain or fragment, UniProt P11940 176-299, looked up)
chain: RKEREAELGARAKEFTNVYIKNFGEDMDDERLKDLFGKFGPALSVKVMTDESGKSKGFGFVSFERHEDAQKAVDEMNGKELNGKQIYVGRAQKKVERQTELKRKFEQMKQDRITRYQGVNLYVK
B7: binds [3].

B8: Flag-1–2–3 (2–299) (domain or fragment, UniProt P11940 2-299, looked up)
chain: NPSAPSYPMASLYVGDLHPDVTEAMLYEKFSPAGPILSIRVCRDMITRRSLGYAYVNFQQPADAERALDTMNFDVIKGKPVRIMWSQRDPSLRKSGVGNIFIKNLDKSIDNKALYDTFSAFGNILSCKVVCDENGSKGYGFVHFETQEAAERAIEKMNGMLLNDRKVFVGRFKSRKEREAELGARAKEFTNVYIKNFGEDMDDERLKDLFGKFGPALSVKVMTDESGKSKGFGFVSFERHEDAQKAVDEMNGKELNGKQIYVGRAQKKVERQTELKRKFEQMKQDRITRYQGVNLYVK
B8: binds (GST-PABP WT).

B9: binds (GST-PABP WT).
